The text below walks through data of patent publication US20240287172A1 (SCIRHOM, published 2024).

Numbering of substitutions follows the chain as printed. Bounds are passed on as bounds.

T1: hiR2-FL-I566E-T7 (human, UniProt Q6PJF5 1-856)
T1 construct: on MEF-DKO cells; also called hiR2-FL-1566E-T7
T1 sequence: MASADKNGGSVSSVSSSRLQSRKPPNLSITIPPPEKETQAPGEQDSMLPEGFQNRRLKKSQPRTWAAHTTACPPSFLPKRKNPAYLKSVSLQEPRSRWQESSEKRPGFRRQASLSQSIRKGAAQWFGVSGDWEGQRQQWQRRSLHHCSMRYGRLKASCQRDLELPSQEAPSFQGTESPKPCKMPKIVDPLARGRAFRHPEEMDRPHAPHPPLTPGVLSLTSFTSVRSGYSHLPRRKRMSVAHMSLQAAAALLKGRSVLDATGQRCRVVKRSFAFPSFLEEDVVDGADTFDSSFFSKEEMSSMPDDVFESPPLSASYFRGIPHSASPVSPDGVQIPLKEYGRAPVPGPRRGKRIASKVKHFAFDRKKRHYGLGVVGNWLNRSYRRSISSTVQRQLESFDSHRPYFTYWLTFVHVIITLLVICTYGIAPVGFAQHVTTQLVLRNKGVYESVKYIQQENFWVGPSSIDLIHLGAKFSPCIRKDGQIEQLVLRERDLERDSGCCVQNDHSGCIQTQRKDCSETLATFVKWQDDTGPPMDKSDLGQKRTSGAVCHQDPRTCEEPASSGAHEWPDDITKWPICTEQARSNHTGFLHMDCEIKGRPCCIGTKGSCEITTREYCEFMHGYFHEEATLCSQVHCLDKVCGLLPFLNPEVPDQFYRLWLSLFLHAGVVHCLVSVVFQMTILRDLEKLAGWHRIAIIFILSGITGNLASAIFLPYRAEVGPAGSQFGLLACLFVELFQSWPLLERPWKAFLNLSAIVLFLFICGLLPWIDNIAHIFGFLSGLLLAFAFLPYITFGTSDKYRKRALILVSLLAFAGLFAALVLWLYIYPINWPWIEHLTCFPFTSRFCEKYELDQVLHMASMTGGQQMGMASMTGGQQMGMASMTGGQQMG

B1: antibody 34 (antibody, V domains shown)
VH: QVTLKESGPGILQPSQTLSLTCSFSGFSLSTFSLGVGWIRQSSGKGLEWLAHIWWDDEKYYNPALKSRLTISKDTSKNQVFLKIANVDAADTATYYCARAYYSKSYYALDYWGQGTSVTVSS
VL: DIQMTQSPSSLSASLGERVSLTCRASQEISGYLSWLQQKPDGTIKRLIYAASTLDSGVPKRFSGSRSGSDYSLAISSLESEDFADYYCLQYANFPFTFGSGTKLEIK
notes: mouse IgG, kappa light chain; also called clone #34; purified antibody 34
B2: antibody 5 (antibody, V domains shown)
VH: QVTLKESGPGILQPSQTLSLTCSFSGFSLSTFGMGVGWIRQPSGKGLEWLAHIWWDDEKYYNSALKSRLTISKATSKNQAFLKIANVDTADTATYYCARISNYGSNYWYFNVWGTGTTVTVSS
VL: QVVLTQSPALMSASPGEKVTMTCSAGSSVSCMYWYQQKPGSSPRVLIYDTSNLASGVPARFTGSGSGTSYSLTISRMEAEDAASYYCQQWNSYPLTFGAGTKLELK
notes: mouse IgG, kappa light chain; also called clone #5; purified antibody 5
B3: antibody 44 (antibody, V domains shown)
VH: B2 VH with G44E, E58D, S63P, A74D, A80I, A85T, D91E, A98S, S101G, N111D
VL: QIVLTQSPAVMSASPGEKVTMTCTASSSVYYMYWYQQTPGSSPRLLIYDTSNLASGVPVRFSGSGSGTSYSLTISRMEAEDAATYYCQQWNTYPLTFGAGTKLELK
notes: mouse IgG, kappa light chain; also called clone #44; purified antibody 44
B4: antibody 43 (antibody, V domains shown)
VH: B2 VH with T3A, P42S, H52N, E58D, S63P, A74D, T75A, S101G, N111D
VL: QIVLTQSPAIMSASPGERVTMTCSANSRISYMYWYQQKPGSSPRLLIYDTSNLASGVPVRFSGSGSGTSYSLTISRMEAEDAATYNCQQWSSYPLTFGAGTKLELK
notes: mouse IgG, kappa light chain; also called clone #43; purified antibody 43
B5: antibody 42 (antibody, V domains shown)
VH: B2 VH with F24L, M34R, S63P, A74D, A80V, K83R, S101Q, N111D
VL: B4 VL with Q1L, R18K, S24G, N26T, Y33F, L45V, M77V, A82V, N86Y, S91N
notes: mouse IgG, kappa light chain; also called clone #42; purified antibody 42
B6: antibody 22 (antibody, V domains shown)
VH: B2 VH with A80V
VL: B2 VL with C31Y, S84T
notes: mouse IgG, kappa light chain; also called clone #22; purified antibody 22
B7: antibody 3 (antibody, V domains shown)
VH: QVTLKESGPGILQPSQTLSLTCSFSGFSLTTFAMGIGWVRQPSGKGLEWLAHIWWDGEKYNNPVLKSRLTISKDTSKNQVFLRIANVDTPDTATYYCARISSIYYIIDNWGQGTSVTVSS
VL: DIVLTQSPATLSVTPGHSVSLSCRASQSISNNLHWYQKKSHESPRLLIKYVSQSISGIPSRFSGSGSGTDFTLSINSVETEDFGMYFCQQSYNWPLTFGAGTKLELK
notes: mouse IgG, kappa light chain; also called clone #3; purified antibody 3

This test concerns the target T1, hiR2-FL-I566E-T7. Briefly: FACS, MEF-DKO cells, 3 µg/ml. From the text:
In brief, immortalized MEF-DKO hiR2-FL-G563D-T7, MEF-DKO hiR2-FL-A564P-T7, MEF-DKO hiR2-FL-1566E-T7, MEF-DKO hiR2-FL-D569E-T7, MEF-DKO hiR2-FL-E579K-T7, MEF-DKO hiR2-FL-Q580N-T7, MEF-DKO hiR2-FL-A581S-T7, MEF-DKO hiR2-FL-R582A-T7, MEF-DKO hiR2-FL-S583G-T7, MEF-DKO hiR2-FL-G587N-T7, MEF-DKO hiR2-FL-F588H-T7, MEF-DKO hiR2-FL-L589P-T7, MEF-DKO hiR2-FL-E594V-T7, MEF-DKO hiR2-FL-K596T-T7, MEF-DKO hiR2-FL-S607R-T7, MEF-DKO hiR2-FL-T612S-T7, MEF-DKO hiR2-FL-E617D-T7, MEF-DKO hiR2-FL-H620R-T7, MEF-DKO hiR2-FL-L636M-T7, MEF-DKO hiR2-FL-K638D-T7, MEF-DKO hiR2-FL-1771F-T7, MEF-DKO hiR2-FL-1825V-T7, MEF-DKO hiR2-FL-1828V-T7, MEF-DKO hiR2-FL-N829R-T7, MEF-DKO hiR2-FL-W830C-T7, MEF-DKO hiR2-FL-P831E-T7, MEF-DKO hiR2-FL-I833C-T7, MEF-DKO hiR2-FL-H835F-T7, MEF-DKO hiR2-FL-F8391-T7, MEF-DKO hiR2-FL-S843D-T7, MEF-DKO hiR2-FL-Q853A-T7, MEF-DKO hiR2-FL-V854Q-T7 and MEF-DKO hiR2-FL-R844K-T7 cells were harvested with 10 mM EDTA in PBS, washed and resuspended in FACS buffer (PBS, 3% FBS, 0.05% sodium azide), and seeded in Nunc U-bottom 96-well plates (Thermo Fisher Scientific, USA) at approximately 1×10⁵ cells per well. To pellet cells and remove supernatants, the plates were centrifuged at 1,500 rpm and 4° C. for 3 minutes. For primary staining, cells were resuspended in 100 μl per well of either FACS buffer alone (controls) or the purified antibodies 3, 5, 16, 22, 34, 42, 43, 44, 48, and 50 of the invention at 3 μg/ml in FACS buffer and incubated on ice for 1 hour. Afterwards, plates were centrifuged at 1,500 rpm and 4° C. for 3 minutes and washed twice with 200 μl per well of FACS buffer. For secondary staining, cells were spun down and resuspended in 100 μl per well of PE-conjugated goat anti-mouse IgG F(ab′)2 detection fragment (Dianova, Germany) diluted 1:100 in FACS buffer. Protected from light, the cell suspensions were incubated on ice for 1 hour. Plates were then centrifuged at 1,500 rpm and 4° C. for 3 minutes and washed three times with 200 μl per well of FACS buffer. Finally, cells were resuspended in 150 μl per well of FACS buffer and analyzed using a BD Accuri™ C6 Plus flow cytometer (Becton Dickinson, Germany).
Take B1: the “loss of binding vs wild type” value is not below 60%.
In the case of B2, the “loss of binding vs wild type” value was not below 95%.
In the case of B3, the “loss of binding vs wild type” value is not below 60%.
As to B4, the “loss of binding vs wild type” value is not below 60%.
In the case of B5 it was not below 60%; in that of B6, not below 60%; in that of B7, not below 30%.
